Results on 4 molecules are retold here after patent US20260250403A1 (BIOCYTOGEN PHARMACEUTICALS BEIJING, published 2026).

First the molecules themselves.
T1: dCD40-His (CD40 Protein, Canine, Recombinant (His Tag), Sino Biological Inc., Cat #: 70105-D08H) (dog, UniProt Q7YRL5 21-194)
T1 construct: Bought protein; also called dog CD40; not shown: His tag
T1 sequence (looked up): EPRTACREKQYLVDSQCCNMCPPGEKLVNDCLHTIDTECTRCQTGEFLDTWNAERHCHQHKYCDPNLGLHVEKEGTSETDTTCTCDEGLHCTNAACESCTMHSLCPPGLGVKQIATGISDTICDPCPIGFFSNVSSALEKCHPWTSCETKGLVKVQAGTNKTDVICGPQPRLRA

B1: 12B5-IgG4-FLAA (antibody, V domains shown)
VH: QVQLVQSGPGLVKPSETLSLTCTVSGGSISYYYWSWIRQPPGKGLEWIGHISYSGSTNYNPSLKSRVTISEDTSKKQFSLKLDSVTAADTAVYYCAGGIVGARRGFDFWGQGTLVTVSS
VL: EIVMTQSPATLSLSPGERATLSCRASQSVSNNLAWYQQKPGQAPRLLIYDASNRAADIPARFSGSGSGTDFTLTISSLEPEDFAVYYCQQRNNWPPTFGQGTKVEIKR
notes: Rest: human IgG4 constant regions with FLAA mutations (F234A and L235A, EU numbering); copies: 2 + 2
B2: 2F8-IgG4-FLAA (antibody, V domains shown)
VH: EVQLVQSGGGVVQPGRSLRLSCAASGFSFSSYAMHWVRQVPGKGLEWVSVISYDGDNKYHAESVKGRFTISRDNSKNILYLQMNSLRPEDTAVYYCARRGTVTNYYSYSGLDVWGQGTTVTVSS
VL: DIQLTQSPLSLPVTPGEPASISCRSSQSLLYSNGKNYLDWYLQKPGQSPQLLIYLASNRASGVPDRFSGSGSGTDFTLKISRVEAEDVGVYFCMQALQTPRTFGQGTKVEIKR
notes: Rest: human IgG4 constant regions with FLAA mutations (F234A and L235A, EU numbering)
B3: 6A4-IgG4-FLAA (antibody, V domains shown)
VH: QVQLVQSGGGLVQPGGSLRLSCAASGFTFSNYVMSWVRQAPGKGLEWVSTIRGSGISTYYTDSVKGRFTTSRDNPKNTLFLQMSSLRAEDTAVYYCAKGIVGATTPFDYWGQGTLVTVSS
VL: B1 VL with M4L, S30R, N31S, N32F, D50E, A51T, A56T, D57G, N92S, N93D
notes: as for B2
B4: Bleselumab analog (antibody, human IgG4, V domains shown)
VH: QLQLQESGPGLLKPSETLSLTCTVSGGSISSPGYYGGWIRQPPGKGLEWIGSIYKSGSTYHNPSLKSRVTISVDTSKNQFSLKLSSVTAADTAVYYCTRPVVRYFGWFDPWGQGTLVTVSS
VL: AIQLTQSPSSLSASVGDRVTITCRASQGISSALAWYQQKPGKAPKLLIYDASNLESGVPSRFSGSGSGTDFTLTISSLQPEDFATYYCQQFNSYPTFGQGTKVEIKR

For orientation: Kd means the equilibrium constant for the complex coming apart. For orientation: koff means the rate constant with which the complex falls apart. For orientation: kon means the rate constant with which the complex forms.

Changes are numbered by the printed parent chain. Names and notes keep the numbering of the source.

hFcRn-His (FCGRT&B2M Heterodimer Protein, His Tag&Strep II Tag, Beijing ACROBiosystems Co. Ltd., Cat #: FCM-H5286) (human), sequence (chain, as listed by the source limits assumed, chain 1 of 2): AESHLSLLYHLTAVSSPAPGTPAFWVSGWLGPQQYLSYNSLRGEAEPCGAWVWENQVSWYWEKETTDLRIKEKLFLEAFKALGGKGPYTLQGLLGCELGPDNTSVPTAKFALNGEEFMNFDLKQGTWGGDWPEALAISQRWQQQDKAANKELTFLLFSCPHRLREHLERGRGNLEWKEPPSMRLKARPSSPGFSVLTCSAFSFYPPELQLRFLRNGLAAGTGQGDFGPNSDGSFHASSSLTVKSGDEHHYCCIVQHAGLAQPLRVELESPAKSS
hFcRn-His (FCGRT&B2M Heterodimer Protein, His Tag&Strep II Tag, Beijing ACROBiosystems Co. Ltd., Cat #: FCM-H5286) (human), sequence (P61769 21-119 limits assumed, chain 2 of 2): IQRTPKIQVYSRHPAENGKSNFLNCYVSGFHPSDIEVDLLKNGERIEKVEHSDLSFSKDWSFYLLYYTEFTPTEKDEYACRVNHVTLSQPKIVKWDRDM

One assay addresses hFcRn-His (FCGRT&B2M Heterodimer Protein, His Tag&Strep II Tag, Beijing ACROBiosystems Co. Ltd., Cat #: FCM-H5286) (human) (UniProt P61769). The assay is described as follows: SPR, Biacore 8K or T200, Protein A chip, steady state affinity model, pH 6.0; pH 6.0.
On to B1, for which the Kd stood at 497 nM.

Another assay addresses T1, dCD40-His (CD40 Protein, Canine, …). As to the kind of experiment: SPR, Biacore 8K, Protein A chip, CD40-His as analyte, 1:1 Langmuir fit. Here is the method: (§1) Purified anti-CD40 antibodies at concentrations of 1 μg/ml with 1×HBS-EP+ buffer (PH 7.4) were then injected at 1 μl/min for 50 seconds. Dissociation was monitored for 400 seconds. The chip was regenerated after the last injection of each titration with a glycine solution (pH 2.0) at 30 μl/min for 30 seconds.
As for B1, the Kd was determined as 32.1 nM, the koff came out at 0.0129 s⁻¹ and the kon came to 401000 M⁻¹ s⁻¹.

Consider B2, for which the Kd came out at 5.18 nM, the koff stood at 0.00266 s⁻¹ and the kon stood at 513000 M⁻¹ s⁻¹.

Another assay has as its target T2, fasCD40-His (Cynomolgus CD40/TNFRSF5 Protein, His Tag, Beijing ACRO Biosystems Co. Ltd., Cat #: CD0-C52H6) (Macaca fascicularis, UniProt G7PG38 21-193).
T2 construct: Bought protein; also called monkey (Macaca fascicularis) CD40; not shown: His tag
The assay is described as above. The protocol:
as §1
As for B1, the Kd is 0.495 nM, the koff came out at 0.000265 s⁻¹ and the kon stood at 535000 M⁻¹ s⁻¹.

For the molecule B3, binding was characterised by a dissociation constant (Kd) of 51.7 nM, the off-rate (koff) came to 0.0149 s⁻¹ and the kon amounted to 288000 M⁻¹ s⁻¹.

The molecule B2 came in with a Kd of 0.301 nM, a koff of 0.000297 s⁻¹ and a kon of 989000 M⁻¹ s⁻¹.

B4: the Kd came to 3.35 nM, the koff was determined as 0.000907 s⁻¹ and the kon turned out to be 270000 M⁻¹ s⁻¹.

Another assay deals with T3, hCD40-His (Human CD40 protein having a His-Tag, Beijing ACROBiosystems Co. Ltd., Cat #: CD0-H5228) (human, UniProt P25942 21-193).
T3 construct: Bought protein; not shown: His tag
T3 sequence (P25942 21-193 limits assumed): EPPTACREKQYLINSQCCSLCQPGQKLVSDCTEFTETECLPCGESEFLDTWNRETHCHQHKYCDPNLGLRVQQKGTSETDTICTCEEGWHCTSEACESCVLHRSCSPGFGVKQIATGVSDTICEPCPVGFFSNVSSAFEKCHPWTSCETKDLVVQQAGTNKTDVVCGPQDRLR
The description is as above. The protocol:
as §1
Molecule B1 came in with a Kd of 0.735 nM, a koff of 0.000389 s⁻¹ and a kon of 529000 M⁻¹ s⁻¹.

For B3, the affinity, expressed as Kd, was 1.66 nM; the dissociation rate constant (koff) was found to be 0.000511 s⁻¹; the kon was 309000 M⁻¹ s⁻¹.

B2 displayed a Kd of 0.351 nM, a koff of 0.000229 s⁻¹ and a kon of 654000 M⁻¹ s⁻¹.

As for B4, the Kd amounted to 1.59 nM, the koff came to 0.000682 s⁻¹ and the kon was 429000 M⁻¹ s⁻¹.
